Laboratory results as given in patent publication US7255859.

Tests used:
[1] = target: Glutathione-S-transferase modified with the HA epitope (GST-HA) (human influenza virus); experiment: Western blot of serially diluted GST-HA with antibody-peroxidase conjugate (100 ng/ml); chemiluminescence
[2] = target: Green-fluorescent protein modified with the HA epitope (GFP-HA) (human influenza virus) [GFP: P42212]; experiment: immunoprecipitation of 50 ng GFP-HA with protein G, then Western blot
[3] = target: epitope … (98-106) of the haemagglutinin of the human influenza virus (human influenza virus); experiment: rounded affinity in the description; antigen not given
[4] = target: Bio-C-HA (acetyl-… (ε-biotinoyl)-amide) (human influenza virus); experiment: SPR (BIACORE), biotinylated peptide on streptavidin chip, antibody in solution
[5] = target: Bio-N-HA (biotinoyl-ε-Aca-…-amide) (human influenza virus); experiment: as above
[6] = target: Glutathione-S-transferase modified with the HA epitope (GST-HA) (human influenza virus); experiment: Western blot, 4 ng GST-HA per lane, primary antibody titrated; chemiluminescence
[7] = target: Glutathione-S-transferase modified with the HA epitope (GST-HA) (human influenza virus); experiment: Western blot of serially diluted GST-HA; 0.1 µg/ml 3F10 against 1 µg/ml 12CA5; chemiluminescence
[8] = target: Glutathione-S-transferase modified with the HA epitope (GST-HA) (human influenza virus); experiment: Western blot of serially diluted GST-HA with antibody-peroxidase conjugate (20 mU/ml); chemiluminescence

peroxidase conjugate of the clone 12CA5 (antibody)
detection limit [1]: 1 ng GST-HA

mAB R 3F10 (antibody)
fold lower antibody quantity to precipitate the antigen against clone 12CA5 [2]: < 20 fold
Ka [3]: 1e+10 M⁻¹
fold higher affinity than 12CA5 and BabCo [3]: 30 fold
Ka [4]: 1.2e+10 M⁻¹
koff [4]: 4.8e-05 s⁻¹
kon [4]: 590000 M⁻¹ s⁻¹
Ka [5]: 6.8e+09 M⁻¹
koff [5]: 9.1e-05 s⁻¹
kon [5]: 620000 M⁻¹ s⁻¹
antibody concentration at signal saturation [6]: 125 ng/mL
fold lower antibody concentration for comparable signals against clone 12CA5 [6]: 20 fold
fold lower detectable amount of GST-HA against clone 12CA5 [7]: 30 fold

anti-HA BabCo (antibody)
Ka [3]: 1e+07 M⁻¹
Ka [4]: 9.3e+06 M⁻¹
koff [4]: 0.001 s⁻¹
kon [4]: 9500 M⁻¹ s⁻¹
Ka [5]: 2.3e+07 M⁻¹
koff [5]: 0.0005 s⁻¹
kon [5]: 12000 M⁻¹ s⁻¹

mAB 12CA5 (antibody)
Ka [3]: 1e+08 M⁻¹
Ka [4]: 9.2e+07 M⁻¹
koff [4]: 0.00026 s⁻¹
kon [4]: 23000 M⁻¹ s⁻¹
Ka [5]: 2.6e+08 M⁻¹
koff [5]: 0.00021 s⁻¹
kon [5]: 53000 M⁻¹ s⁻¹
antibody concentration at which the antibody becomes the limiting factor [6]: < 2000 ng/mL

peroxidase conjugate of the clone 3F10 (antibody)
amount still detected [8]: 40 pg GST-HA
